Test results taken from patent publication US20230365658A1.
Several values for one entry are separate records, joined by “and”; a condition that tells them apart may be missing. Equal values may be shown once.

Key:
[1] = biological target: COV2-RBD (rpk9) B.1.1.529 R346K (BA.1.1) (SARS-CoV-2)
[2] = biological target: SARS-CoV-2 spike (S) glycoprotein, D614G (SARS-CoV-2) (UniProt P0DTC2); experiment: cell-based or functional assay

COV2-2130 (antibody)
EC50 [1]: 4.13 µg/mL and 3.54 µg/mL

rS2K146 (antibody)
normalized pseudoneutralization IC50 [2]: 0.00656 µg/mL
